Assay [1] deals with T1, rat MOG (myelin-oligodendrocyte glycoprotein) (rat, UniProt Q63345 28-245).
T1 construct: mature; Endogenous protein in cleared rat spinal cord lysate, run on SDS-PAGE and blotted; It was identified only by its size
T1 sequence (looked up): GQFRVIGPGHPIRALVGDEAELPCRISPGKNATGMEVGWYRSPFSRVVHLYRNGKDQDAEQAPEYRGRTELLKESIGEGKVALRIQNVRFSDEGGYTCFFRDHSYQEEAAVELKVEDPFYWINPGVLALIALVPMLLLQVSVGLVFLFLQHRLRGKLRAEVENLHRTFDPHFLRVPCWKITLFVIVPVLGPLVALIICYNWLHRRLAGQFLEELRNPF
The assay is described as follows: Western blot on rat spinal cord lysate. As for the experimental part: The ability of AB138 to retain binding to the antigen of M26, rat MOG (myelin-oligodendrocyte glycoprotein), was investigated by Western Blot. 130 mg of rat spinal cord (IMVS, Australia) was homogenized in 1.8 ml CelLytic M Cell Lysis Reagent (SIGMA, C2978) and incubated for 30 minutes at 4° C. Further homogenization was performed by drawing the lysate through a 27 g ½ needle several times followed by centrifugation at 4° C. and 13000 g for 30 minutes. The pellet and supernatant was diluted into SDS-PAGE sample buffer (125 mM Tris-HCl pH 6.8, 5% SDS, 0.25% bromophenol blue, 25% glycerol). Along with this 200 μl CHOK1SV cells at 1×10⁶ viable cells per ml were spun down at 13000×g at 4° C. for 1 minute and resuspended in 200 μl CelLytic M Cell Lysis Reagent (SIGMA). Following centrifugation at 4° C. and 13000×g for 30 minutes the supernatant was mixed with the appropriate amount of SDS-PAGE sample buffer. All samples, along with a sample of molecular weight markers, were run on a 4-20% Novex pre-cast gel (Invitrogen, Australia) for 2 hours at 120V. Proteins were then transferred to PVDF (BioRad, Australia) using a western blot apparatus in 1×Tris-Glycine Buffer with 20% methanol (BioRad, Cat 161+-0771) at 4° C. at 250 mA for 2 hours. […] Following washing, bound antibody was detected using the ECL Western Blotting Analysis System, (Amersham Biosciences Cat: RPN2109). […]
On the technique in general: Immunoblotting shows a protein as a band on a membrane.

The target in assay [2] is T2, human TNF-α (Peprotech Cat No: 300-01A) (human, UniProt P01375 77-233). Description: cell-based or functional assay.
T2 sequence (P01375 77-233 limits assumed): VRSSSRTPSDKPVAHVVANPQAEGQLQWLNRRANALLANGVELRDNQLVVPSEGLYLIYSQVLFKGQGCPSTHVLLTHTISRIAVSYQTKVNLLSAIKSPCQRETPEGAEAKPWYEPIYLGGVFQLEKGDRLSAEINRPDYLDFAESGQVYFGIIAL
In assay [3] the target is T2, human TNF-α (Peprotech Cat No: 300-01A). Description: ELISA, TNF-α coated on the plate. As for the experimental part:
TNF-α (Peprotech Cat No: 300-01A) was diluted to 1 μg/mL in carbonate coating buffer ([…] pH 9.6). 100 μl of this solution was added to each well of a 96 well plate and incubated at 4° C. overnight in a humidified container. The plate was then washed three times with wash buffer (0.01M PBS pH 7.2, 0.05% Tween-20) and then three times with 0.01M PBS pH 7.2. The wells were then blocked by adding 200 μL blocking buffer (1% w/v BSA in 0.01M PBS pH 7.2) to each well and incubating the plate at 25° C., in a humidified container, for 1 hour. The antibody was diluted in antibody diluent (1% w/v BSA, 0.05% Tween-20 in 0.01M PBS pH 7.2) sufficient to generate a titration curve covering the ranges 6.00 μg/mL to 0.0578 ng/mL. The wells were incubated with the antibody for 1 hour at 25° C. The plate was then washed as previously described. 100 μL of Anti-IgG H+L antibody HRP conjugate (Zymed, Cat No: 81-71200) at 1:2000 in antibody diluent was used to detect bound AB197 and AB103. 100 μL of Anti-murine immunoglobulin antibody HRP conjugate (Dako, Cat No: P0260) at 1:2000 in antibody diluent was used to detect bound AB164. Wells with antibody diluent only were used to measure the background absorbance. After incubation at 25° C., in a humidified container, for 1 hour the plate was washed again as previously described. 100 μL TMB substrate solution (Zymed, Cat No: 00-2023) was added to each well and the colour allowed to develop for 4 min. 100 μL of 1M HCl was added to terminate the colour development reaction and absorbance was determined at 450 nm (ref. 620 nm)
(In general: ELISA stands for enzyme-linked immunosorbent assay.)

The source of these data is US20080095767A1 (PEPTECH, published 2008).

As a reminder, the EC50 is the midpoint of the concentration-response curve. Low readings indicate a more potent agent, high ones a less potent agent.

B1: AB138 (MOG specific marmoset derived variable region-human constant region chimera) (antibody, human IgG1, kappa, V domains shown)
VH: QVQLVQSGAEVKKPGASVKVSCKASGYTFTSYAISWARQPPGQGLEWMGAFDPEYGSTTYAQKFQGRVTMTADTSTSTAYMELSSLRPEDTAVYYCARDVNFGNYFDYWGQGTLVTVSS
VL: ELVMTQSPATLSLSPGERATVSCRAGQSVSYYLAWYQQKPGQAPRLLIYGASTRATGIPARFSGSRSGTDFTLTISSLEPEDFAVYYCQQYSSWPPTFGQGTKLEIKR
notes: Chimeric antibody with the variable regions of the marmoset anti-MOG antibody (M26) and human IgG1/kappa constant regions
For B1, the binding result in assay [1] was “binds”.

B2: murine monoclonal antibody AB164 (antibody, V domains shown)
VH: QVQLQQSGAELVRPGTSVKVSCKASGYAFTNYLIEWVKQRPGQGLEWIGVINPGSGSTNYNEKFKDKATLTADKSSSTAYMQLSSLTSDDSAVYFCVRDYGYDGMDYWGQGTSVTVS
VL: DIVLTQSPASLAVSLGQRATISCRASKSVSTSGYSYMHWYQQKPGQPPKLLIYLASNLESGVPARFSGSGSGTDFTLNIHPVEEEDAATYYCQHSRELPLTFGAGTKLELKR
notes: Fully murine antibody from a hybridoma
Consider B2, for which the “EC-50 (µg/ml), neutralisation of TNF-α-induced L-929 cell cytotoxicity” value (from here on “EC-50 (µg/ml), neutralisation”) in assay [2] is 0.1 µg/mL. For the same molecule, the EC50 in assay [3] worked out at 0.45 µg/mL.

B3: AB103 (anti-TNFα murine variable region-human constant region chimera) (antibody, V domains shown)
VH: QVQLQQSGAELVRPGTSVKVSCKASGYAFTNYLIEWVKQRPGQGLEWIGVINPGSGSTNYNEKFKDKATLTADKSSSTAYMQLSSLTSDDSAVYFCVRDYGYDGMDYWGQGTSVTVSS
VL: B2 VL
Turning to B3, the “EC-50 (µg/ml), neutralisation” value in assay [2] came out at 0.1 µg/mL. In assay [3], this molecule showed an EC50 of 0.19 µg/mL.

B4: engineered monoclonal antibody AB197 (antibody, V domains shown)
VH: QVQLVQSGAELKKPGASVKVSCKASGYAFTNYLIEWVRQPPGQGLEWIGVINPGSGSTNYNEKFKDKATLTADKSSSTAYMELSSLRPEDTAVYYCARDYGYDGMDYWGQGTLVTVS
VL: ELVMTQSPATLSLSPGERATVSCRASKSVSTSGYSYMHWYQQKPGQAPRLLIYLASNLESGVPARFSGSRSGTDFTLTISSLEPEDFAVYYCQHSRELPLTFGQGTKLEIKR
Regarding B4, the “EC-50 (µg/ml), neutralisation” value in assay [2] is 0.41 µg/mL. In assay [3], this molecule displayed an EC50 of 0.68 µg/mL.
